The supplement of paper PMC7877785
± gives the uncertainty stated by the source.

Assay: self-splicing fitness, log relative to wild type (ln ratio); higher = more splicing; Tetrahymena group I intron in knt gene, E. coli kanamycin selection, DiMSum; sequences stand for … in CUCUCU…GGAGGGAAAAGUUAUCAGGCAUGCACCUGGUAGCUAGUCUUUAAACCAAUAGAUUGCAUCGGUUUAAAAGGCAAGACCGUCAAAUUGCGGGAAAGGGGUCAACAGCCGUUCAGUACCAAGUCUCAGGGGAAACUUUGAGAUGGCCUUGCAAAGGGUAUGGUAAUAAGCUGACGGACAUGGUCCUAACCACGCAGCCAAGUCCUAAGUCAACAGAUCUUCUGUUGAUAUGGAUGCAGUUCACAGACUAAAUGUCGGUCGGGGAAGAUGUAUUCUUCUCAUAAGAUAUAGUCGGACCUCUCCUUAAUGGGAGCUAGCGGAUGAAGUGAUGCAACACUGGAGCCGCUGGGAACUAAUUUGUAUGCGAAAGUAUAUUGAUUAGUUUUGGAGUACUCGUGGUCG
Procedure, shortened: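 Colonies from six replicate transformations of E. coli BL21(DE3) were pooled and amplicon-sequenced on an Illumina HiSeq 2500. The library placed an intron with all eight P1ex-region nucleotides randomised inside the knt kanamycin-resistance gene on pET-22b(+), and cells grew overnight at 37°C or 30°C on LB agar with or without 25 μg/mL kanamycin (plus 100 μg/mL carbenicillin, 50 μM IPTG, 0.2% rhamnose). Fitness is the DiMSum error-weighted combination of wild-type-normalised replicate fold changes, kanamycin versus none.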

Sequence | self-splicing fitness (ln) (30 °C) | self-splicing fitness (ln) (37 °C)
GAAAAGCAAUAUUACGUACG | -1.16 ± 0.061 | -0.9 ± 0.079
GAAAAGCAAUAUUACGUAUC | -3.9 ± 0.15 | -1.48 ± 0.1
GAAAAGCAAUAUUACGUCAU | -1.82 ± 0.088 | -0.42 ± 0.097
GAAAAGCAAUAUUACGUGGA | -2.96 ± 0.12 | -1.89 ± 0.12
GAACAGCAAUAUUACGAAAC | -0.693 ± 0.1 | -0.301 ± 0.12
GAACAGCAAUAUUACGAAAU | -1.67 ± 0.12 | -0.204 ± 0.14
GAACAGCAAUAUUACGACAG | -3.37 ± 0.18 | -2.55 ± 0.17
GAACAGCAAUAUUACGACCC | -0.0445 ± 0.095 | 0.121 ± 0.11
GAACAGCAAUAUUACGACUU | -0.206 ± 0.072 | 0.314 ± 0.088
GAACAGCAAUAUUACGAGGG | -3.29 ± 0.22 | -1.87 ± 0.22
GAACAGCAAUAUUACGAGGU | -3.08 ± 0.14 | -1.71 ± 0.12
GAACAGCAAUAUUACGAUUC | -1.65 ± 0.072 | -1.21 ± 0.11
GAACAGCAAUAUUACGAUUG | -1.62 ± 0.082 | -1.26 ± 0.11
GAACAGCAAUAUUACGCAUA | -0.914 ± 0.079 | -0.68 ± 0.094
GAACAGCAAUAUUACGCAUU | -1.67 ± 0.095 | -0.812 ± 0.12
GAACAGCAAUAUUACGCCCC | -1.22 ± 0.25 | -0.835 ± 0.47
GAACAGCAAUAUUACGCCCG | -2.49 ± 0.22 | -0.797 ± 0.2
GAACAGCAAUAUUACGCGGU | -3.6 ± 0.19 | -2.82 ± 0.21
GAACAGCAAUAUUACGCGUA | -0.925 ± 0.072 | -0.411 ± 0.07
GAACAGCAAUAUUACGGCUU | -0.492 ± 0.064 | 0.239 ± 0.087
GAACAGCAAUAUUACGGGAG | -2.06 ± 0.086 | -1.47 ± 0.097
GAACAGCAAUAUUACGGGCG | -1.68 ± 0.086 | -0.0108 ± 0.097
GAACAGCAAUAUUACGGUAG | -2.81 ± 0.12 | -1.87 ± 0.14
GAACAGCAAUAUUACGGUUC | -3 ± 0.14 | -2.93 ± 0.22
GAACAGCAAUAUUACGUAAC | -1.12 ± 0.082 | -0.127 ± 0.1
GAACAGCAAUAUUACGUACG | -0.821 ± 0.081 | -0.0209 ± 0.11

Sequence | self-splicing fitness (ln) (30 °C) | self-splicing fitness (ln) (37 °C)
GAACAGCAAUAUUACGUAUU | -1.57 ± 0.063 | -0.99 ± 0.075
GAACAGCAAUAUUACGUCAU | -0.993 ± 0.069 | -0.47 ± 0.084
GAACAGCAAUAUUACGUCUU | -0.598 ± 0.07 | 0.229 ± 0.089
GAACAGCAAUAUUACGUGAC | -1.63 ± 0.11 | -0.482 ± 0.15
GAACAGCAAUAUUACGUUGG | -2.51 ± 0.08 | -1.94 ± 0.1
GAAGAGCAAUAUUACGAACA | -2.15 ± 0.23 | -1.54 ± 0.25
GAAGAGCAAUAUUACGAGGC | – | -1.8 ± 0.41
GAAGAGCAAUAUUACGAUUA | -2.33 ± 0.23 | -1.85 ± 0.17
GAAGAGCAAUAUUACGCCAG | – | -0.627 ± 0.38
GAAGAGCAAUAUUACGCCAU | – | -1.61 ± 0.37
GAAGAGCAAUAUUACGCCUG | -0.984 ± 0.19 | -0.756 ± 0.35
GAAGAGCAAUAUUACGCGAC | -3.8 ± 0.36 | -1.18 ± 0.18
GAAGAGCAAUAUUACGCUCA | – | -1.33 ± 0.48
GAAGAGCAAUAUUACGCUGC | – | -2.63 ± 0.48
GAAGAGCAAUAUUACGGCGC | -1.12 ± 0.16 | -0.427 ± 0.16
GAAGAGCAAUAUUACGGCGG | -3.45 ± 0.2 | -2.19 ± 0.27
GAAGAGCAAUAUUACGUGAU | -3.4 ± 0.14 | -1.51 ± 0.13
GAAGAGCAAUAUUACGUUGC | -3.04 ± 0.28 | -2.25 ± 0.27
GAAUAGCAAUAUUACGAAUG | -1.42 ± 0.24 | -1.15 ± 0.28
GAAUAGCAAUAUUACGACCA | -0.287 ± 0.13 | -0.616 ± 0.13
GAAUAGCAAUAUUACGACCC | 0.178 ± 0.39 | –
GAAUAGCAAUAUUACGAGUC | -3.29 ± 0.15 | -1.4 ± 0.11
GAAUAGCAAUAUUACGAUAG | -0.707 ± 0.15 | -1.47 ± 0.22
GAAUAGCAAUAUUACGCACA | -0.518 ± 0.15 | 1.18 ± 0.18
GAAUAGCAAUAUUACGCCGU | -1.6 ± 0.1 | -0.466 ± 0.11
GAAUAGCAAUAUUACGCUGA | -2.56 ± 0.31 | -0.623 ± 0.22

Sequence | self-splicing fitness (ln) (30 °C) | self-splicing fitness (ln) (37 °C)
GAAUAGCAAUAUUACGCUUA | -1.5 ± 0.17 | -0.146 ± 0.17
GAAUAGCAAUAUUACGGACG | -1.84 ± 0.16 | -0.471 ± 0.22
GAAUAGCAAUAUUACGGAUA | -2.36 ± 0.26 | -1.46 ± 0.21
GAAUAGCAAUAUUACGGCGC | 0.0238 ± 0.14 | 0.023 ± 0.16
GAAUAGCAAUAUUACGGUGA | -1.69 ± 0.12 | -1.36 ± 0.11
GAAUAGCAAUAUUACGUCUG | -1.85 ± 0.075 | -0.674 ± 0.082
GAAUAGCAAUAUUACGUGUG | -2.23 ± 0.07 | -1.52 ± 0.073
GAAUAGCAAUAUUACGUUGC | -4.27 ± 0.34 | -2.69 ± 0.37
GACAAGCAAUAUUACGAAUU | -1.56 ± 0.063 | -1.47 ± 0.099
GACAAGCAAUAUUACGACAG | -4.68 ± 0.22 | -2.63 ± 0.14
GACAAGCAAUAUUACGACCU | 0.335 ± 0.11 | -0.133 ± 0.12
GACAAGCAAUAUUACGAUCC | -2.7 ± 0.22 | -2.08 ± 0.34
GACAAGCAAUAUUACGCAAA | -2.04 ± 0.13 | -1.81 ± 0.12
GACAAGCAAUAUUACGCAGC | – | -1.7 ± 0.22
GACAAGCAAUAUUACGCAUG | -2.33 ± 0.13 | -0.814 ± 0.14
GACAAGCAAUAUUACGCCAG | -3.1 ± 0.3 | –
GACAAGCAAUAUUACGCCUU | -1.15 ± 0.14 | -1.04 ± 0.13
GACAAGCAAUAUUACGCGCA | -0.282 ± 0.099 | -0.0559 ± 0.1
GACAAGCAAUAUUACGCGUA | -1.12 ± 0.072 | -0.683 ± 0.078
GACAAGCAAUAUUACGCGUG | -2.54 ± 0.076 | -0.344 ± 0.071
GACAAGCAAUAUUACGCUAU | -1.96 ± 0.094 | -1.17 ± 0.1
GACAAGCAAUAUUACGGACA | -1.33 ± 0.14 | -0.153 ± 0.13
GACAAGCAAUAUUACGGAGA | -2.59 ± 0.18 | -1.98 ± 0.14
GACAAGCAAUAUUACGGUUG | -2.3 ± 0.087 | -1.15 ± 0.11
GACAAGCAAUAUUACGUCAA | -2.87 ± 0.15 | -1.95 ± 0.1
